Literature values, collected in article PMC6039870.

Biological target: RNH1 (Homo sapiens) (UniProt P13489)
UniProt P13489, sequence (P13489 2-461): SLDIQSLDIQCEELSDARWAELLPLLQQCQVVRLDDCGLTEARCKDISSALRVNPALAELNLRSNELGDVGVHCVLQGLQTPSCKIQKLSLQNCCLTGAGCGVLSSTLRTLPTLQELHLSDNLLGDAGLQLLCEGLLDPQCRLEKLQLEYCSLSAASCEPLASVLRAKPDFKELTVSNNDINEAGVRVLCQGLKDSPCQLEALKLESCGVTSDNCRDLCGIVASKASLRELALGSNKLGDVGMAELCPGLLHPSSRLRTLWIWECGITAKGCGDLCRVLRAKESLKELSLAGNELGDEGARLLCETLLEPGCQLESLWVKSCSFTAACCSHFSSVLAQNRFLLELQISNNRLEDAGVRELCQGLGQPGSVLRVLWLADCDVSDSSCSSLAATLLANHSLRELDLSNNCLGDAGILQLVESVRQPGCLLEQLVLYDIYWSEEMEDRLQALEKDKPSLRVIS

RNASE1 (from UniProt P07998)
Kd: 0.0003 pM
